From article PMC10314921, “Eltrombopag directly activates BAK and induces apoptosis” (Cell Death & Disease, 2023)

B1: BAK lacking its transmembrane domain (BAKΔTM), wild type [human] / itself (parent)
chain: EPALPSASEEQVAQDTEEVFRSYVFYRHQQEQEAEGVAAPADPEMVTLPLQPSSTMGQVGRQLAIIGDDINRRYDSEFQTMLQHLQPTAENAYEYFTKIATSLFESGINWGRVVALLGFGYRLALHVYQHGLTGFLGQVTRFVVDFMLHHCIARWIAQRGGWVAALNLGNG

Variants of: B1
Assay: size exclusion chromatography (BAK oligomerization assay)
Conditions: with itself; with Eltro (3.4 mM in panels a, b); CHAPS buffer, 1 h at 25 °C; Superdex75; parent: 54; read off a plot

Row | screen value [%] | Variant
1 | 39 | EPALPSASEEQVAQDTEEVFRSYVFYRHQQEQEAEGVAAPADPEMVTLPLQPSSTMGQVGRQLAIIGDDINRRYDSEFQTMLQHLQPTAENAYEYFTKIATSLFESGINWGRVVALLGFGYRLALHVYQHGLTGFLGQVTEFVVDFMLHHCIARWIAQRGGWVAALNLGNG [chain 1 R141E]
2 | 42 | EPALPSASEEQVAQDTEEVFRSYVFYRHQQEQEAEGVAAPADPEMVTLPLQPSSTMGQVGRQLAIIGDDINRRYDSEFQTMLQHLQPTAENAYEYFTKIATSLFESGINWGRVVALLGFGYRLALHVYQHGLTGFLGQVTAFVVDFMLHHCIARWIAQRGGWVAALNLGNG [chain 1 R141A]
